Measurements reported in US20200009213A1, “Specific Increase of Dopamine Synthesis THrough Targeting of the Guanylate Cyclase 2C Receptor in the Treatment of Parkinson's Disease” (Universiteit van Amsterdam, priority 2017, published 2020).
Blank lines part the entries; values can stand above or below the molecule they belong to.

Columns and labels:
GUCY2C R792S mutant = biological target: T1, GUCY2C R792S mutant (Homo sapiens, UniProt P25092, R792S); assay: Ser40 phosphorylation in HEK cells co-transfected with Th and GUCY2C gain-of-function mutant R792S versus wt; type: cell-based; details: HEK cells co-transfected with Th and wt or R792S GUCY2C; FIG. 5B
T1 construct: expressed in transfected cells; host or cells: HEK cells
Method: (§1) FIG. 5. The increase in Ser40 phosphorylation is proportional to the produced amount of cGMP upon GUCY2C stimulation. (A) HEK cultures were treated with guanylin, in the presence or absence of IBMX. […] Unpaired Student's t-test (p-values: ****<0.0001, **<0.01, *<0.05). (B) HEK cells were co-transfected with Th and either the wt GUCY2C or a gain-of-function mutant (R792S). Ser40 phosphorylation was studied following guanylin treatment (G). […] Unpaired Student's t-test (p-values: ***<0.001, **<0.01).
HEK cells were transfected using the calcium-phosphate method. 12-well plates were refreshed with 500 μL of growth medium before transfection. […] The plasmid mixture was taken into a final concentration of 250 mM CaCl2 in a total volume of 110 μL. A complementary tube was filled with 110 μL of HEPES-buffered saline 2× (HEBS 2×: 1.5 mM Na2HPO4, 50 mM HEPES pH 7.05, 280 mM NaCl). […]
Up to 35 μL of sample was loaded in each slot and run in the presence of tris-glycine buffer and 0.1% SDS. […] After additional washings during 1 hour, blots were exposed to an enhanced chemiluminescence solution and the signal was detected using an Odyssey imager (LI-COR). […] For graph quantifications, ‘Fold Change’ represents the ratio P-Ser40/Total Th. Statistical comparisons between pair of groups correspond to unpaired Student's t-tests, as calculated with GraphPad Prism. […]

[1] = injected into the blood stream; cited from earlier work
human GUCY2C = biological target: T2, human GUCY2C (Homo sapiens, UniProt P25092); assay: Ser40 phosphorylation of Th in HEK cells co-transfected with Th and GUCY2C (western blotting, ratio P-Ser40/Total Th); type: cell-based; details: guanylin 10 μM, 1 hour; for P-Ser40 levels (Fold Change = ratio P-Ser40/Total Th): HEK cells co-transfected with Th and GUCY2C, uroguanylin 1 μM, p<0.01
T2 construct: expressed in transfected cells; host or cells: HEK cells
Method: FIG. 4. GUCY2C activation increases Ser40 phosphorylation. Immunocytochemistry images (A) and western blotting analysis (B) of HEK cultures transfected with Th or Th+GUCY2C. (C) Co-transfected HEK cells were treated with guanylin (G) or uroguanylin (UroG) and changes in Ser40 phosphorylation were studied. The graph represents the statistical analysis (n=3 for Control, n=6 for Guanylin, n=9 for Uroguanylin; Mean±SEM). Unpaired Student's t-test (p-value: **<0.01).
as §1
(§2) HEK cells were maintained in 100-mm Petri dishes and grown in DMEM medium supplemented with L-glutamine, penicillin-streptomycin (Pen&Strep) and 10% heat-inactivated fetal bovine serum (HIFBS). Growing conditions were 37° C. and 5% CO2. For every-other-day passages, HEK cultures were split at a 1:3 dilution. From Friday to Monday, the split proportion was doubled for all cell lines. For passaging, cultures were rinsed with PBS and incubated with 1 mL of trypsin during 5 minutes. Cells were resuspended in growth medium and finally split to the proper dilution. The experiments were performed in 12-well plates. For immunocytochemistry analysis, sterile 18-mm coverslips were added prior to the plating. 500 μL of cell resuspension was seeded in each well. If experiments were to be performed 48 hours after the plate preparation, 1:5 was the seeding ratio for HEK cells. When the experiments took place 96 hours post-plating, 1:7 was the working dilution for HEK cells. Unless otherwise stated, HEK cultures were processed 96 hours post-plating.
HEK cells were transfected using the calcium-phosphate method. […]

[2] = system: Th Ser40 phosphorylation (cGMP-derived signaling) in HEK cells; assay: Ser40 phosphorylation of Th in HEK cells transfected with Th (western blotting, ratio P-Ser40/Total Th); type: cell-based, mouse Th in HEK cells; details: 500 μM, 1 hour, 48 hours post-plating, n=6, p<0.0001
Method: FIG. 3. HEK cells are a suitable model to study GUCY2C-induced Ser40 phosphorylation. (A) RT-qPCR data from intact HEK extracts. Input material was 10 ng of total RNA. Cp corresponds to the cycle number in which the expression starts to be considered positive. (-) represents the water control, which is negative in every case. (B) HEK cultures were transfected with Th and treated with a cGMP analogue 48 hours post-plating. Changes in Ser40 phosphorylation were studied. The graph represents the statistical analysis (n=6; Mean±SEM). Unpaired Student's t-test (p-value: ****<0.0001). Hereon, ‘Fold Change’ corresponds to the ratio P-Ser40/Total Th.
as §2, with “If experiments were to be performed 48 hours after the plate preparation, 1:5 was the seeding ratio for HEK cells. When the experiments took place 96 hours post-plating, 1:7 was the working dilution for HEK cells. Unless otherwise stated, HEK cultures were processed 96 hours post-plating.” left out

T2 sequence (P25092 24-1073): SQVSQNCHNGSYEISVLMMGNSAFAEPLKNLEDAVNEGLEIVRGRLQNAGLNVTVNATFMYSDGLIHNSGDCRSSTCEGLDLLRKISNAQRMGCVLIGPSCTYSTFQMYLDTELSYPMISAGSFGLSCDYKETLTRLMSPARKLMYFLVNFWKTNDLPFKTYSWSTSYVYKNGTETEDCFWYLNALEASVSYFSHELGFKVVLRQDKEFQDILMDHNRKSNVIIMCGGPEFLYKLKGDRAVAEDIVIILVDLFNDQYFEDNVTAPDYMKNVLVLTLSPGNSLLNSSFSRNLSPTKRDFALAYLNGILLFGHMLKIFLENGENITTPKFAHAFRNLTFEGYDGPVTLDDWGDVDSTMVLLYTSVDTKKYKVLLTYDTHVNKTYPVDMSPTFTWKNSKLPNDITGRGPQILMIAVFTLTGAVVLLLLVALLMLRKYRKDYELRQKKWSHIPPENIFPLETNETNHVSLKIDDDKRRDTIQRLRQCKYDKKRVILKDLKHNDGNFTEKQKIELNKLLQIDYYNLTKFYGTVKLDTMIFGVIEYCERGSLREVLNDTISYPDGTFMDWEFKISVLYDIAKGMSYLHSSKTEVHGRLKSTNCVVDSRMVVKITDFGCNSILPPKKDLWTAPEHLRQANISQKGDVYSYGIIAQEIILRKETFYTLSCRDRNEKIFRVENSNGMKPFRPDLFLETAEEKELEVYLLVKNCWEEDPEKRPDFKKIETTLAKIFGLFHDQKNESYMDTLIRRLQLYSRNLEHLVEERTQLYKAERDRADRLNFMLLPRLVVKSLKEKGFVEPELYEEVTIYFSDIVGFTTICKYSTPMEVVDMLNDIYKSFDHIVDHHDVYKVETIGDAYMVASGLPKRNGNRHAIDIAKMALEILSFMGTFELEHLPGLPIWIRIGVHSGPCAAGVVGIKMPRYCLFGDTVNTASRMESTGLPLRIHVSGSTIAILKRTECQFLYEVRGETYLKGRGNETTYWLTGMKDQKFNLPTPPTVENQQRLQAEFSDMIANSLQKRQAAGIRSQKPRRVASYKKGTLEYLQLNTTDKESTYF
T1 sequence (P25092 24-1073 R792S): as the sequence (P25092 24-1073) above, with R769S counted along it

boost in Ser40 phosphorylation upon guanylin treatment, R792S mutant compared to wt receptor (GUCY2C R792S mutant): 1.5 fold
P-Ser40 levels (Fold Change = ratio P-Ser40/Total Th) (human GUCY2C): increase P-Ser40 levels
Molecule: guanylin: natural agonistic ligand of GUCY2C; a 15 amino acid polypeptide (PGTCEICAYAACTGC)
passage of the blood-brain barrier [1]: rapidly enters the brain

Molecule: CC(C)Cn1c(=O)n(C)c(=O)c2[nH]cnc21 [IBMX, 3-isobutyl-1-methylxanthine]
Ser40 phosphorylation with PDE inhibition (human GUCY2C; HEK cultures, IBMX 100 μM, FIG. 5A): potentiated the increase in Ser40 phosphorylation as compared to guanylin administration

P-Ser40 levels (Fold Change = ratio P-Ser40/Total Th) (human GUCY2C): increase P-Ser40 levels
Molecule: uroguanylin: natural agonistic ligand of GUCY2C; a 16 amino acid peptide (NDDCELCVNVACTGCL)

Molecule: Nc1nc2c(nc(Br)n2[C@@H]2O[C@@H]3COP(=O)(O)O[C@H]3[C@H]2O)c(=O)[nH]1 [8-Bromo-cGMP]
P-Ser40 levels (Fold Change = ratio P-Ser40/Total Th) [2]: small but significant increase in P-Ser40 levels
